Source: patent publication EP4624486A1 (Guangdong Raynovent Biotech Co., Ltd., dated 2025)
Bridge positions count the residues as written; N and C are the ends. Square brackets hold non-standard residues; d marks the D form. Ends that are not written are not given here. stapled body chem0195 = not defined here; stapled body chem0208 = not defined here; stapled body chem0209 = not defined here; stapled body chem0212 = not defined here; stapled body chem0214 = not defined here; stapled body chem0215 = not defined here; αMeL = CC(C)C[C@](C)(N)C(=O)O; Orn = NCCC[C@H](N)C(=O)O; Aib = CC(C)(N)C(=O)O

T1: GIP receptor (GIPR) (UniProt P48546 22-466, limits assumed)
T1 sequence (looked up): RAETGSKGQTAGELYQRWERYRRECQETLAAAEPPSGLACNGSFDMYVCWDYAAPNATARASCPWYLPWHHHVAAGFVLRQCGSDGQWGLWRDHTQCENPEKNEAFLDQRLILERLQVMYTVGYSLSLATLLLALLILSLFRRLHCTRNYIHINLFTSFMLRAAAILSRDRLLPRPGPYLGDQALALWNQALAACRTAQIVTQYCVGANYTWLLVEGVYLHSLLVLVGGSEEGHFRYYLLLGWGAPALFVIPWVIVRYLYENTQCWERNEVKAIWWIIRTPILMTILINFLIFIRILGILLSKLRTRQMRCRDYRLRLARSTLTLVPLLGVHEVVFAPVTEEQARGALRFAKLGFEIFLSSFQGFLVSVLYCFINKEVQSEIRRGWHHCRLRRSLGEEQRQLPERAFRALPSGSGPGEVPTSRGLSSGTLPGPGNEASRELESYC


Assays:
Assay in all cases: cell-based or functional assay
GLP-1 receptor (GLP-1R) = GLP-1 receptor (GLP-1R) (UniProt P43220 24-463, limits assumed)
GIP receptor (GIPR) = target: T1, GIP receptor (GIPR)
GCG receptor (GCGR) = GCG receptor (GCGR) (UniProt P47871 26-477, limits assumed)
Sequence of GCG receptor (GCGR) (P47871 26-477 limits assumed): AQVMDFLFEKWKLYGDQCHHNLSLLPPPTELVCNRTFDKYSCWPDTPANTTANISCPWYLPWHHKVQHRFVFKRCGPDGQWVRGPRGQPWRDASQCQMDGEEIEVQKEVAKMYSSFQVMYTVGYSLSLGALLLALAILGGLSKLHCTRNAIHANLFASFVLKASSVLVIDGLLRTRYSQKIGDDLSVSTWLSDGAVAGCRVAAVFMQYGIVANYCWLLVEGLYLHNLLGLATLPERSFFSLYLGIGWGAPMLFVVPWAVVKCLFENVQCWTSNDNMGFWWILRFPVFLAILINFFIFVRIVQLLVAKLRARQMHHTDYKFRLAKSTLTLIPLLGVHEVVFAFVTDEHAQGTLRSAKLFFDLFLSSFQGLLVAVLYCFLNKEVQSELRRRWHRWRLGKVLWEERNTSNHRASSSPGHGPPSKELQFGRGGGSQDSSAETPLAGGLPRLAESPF

Binder	GLP-1 EC50 (nM); cAMP, agonistic activity (GLP-1 receptor (GLP-1R)) [nM]	GIP-1 EC50 (nM); cAMP, agonistic activity (GIP receptor (GIPR)) [nM]	GCG EC50 (nM); cAMP, agonistic activity (GCG receptor (GCGR)) [nM]
Y[Aib]QGTFTSDYSI[αMeL]LDKKAQ[Aib]AFIKYLLEGGPSSGAPPPS-NH2 (linker 17-24 via stapled body chem0209; reading uncertain; also: further groups not given here) [Example 11]	0.006	0.0003	0.129
Y[Aib]QGTFTSDYSI[αMeL]LDKKAQ[Aib]KFIEYLLEGGPSSGAPPPS-NH2 (bridge 17-21; also: stapled body between K17 and K21 is given only as a drawing, not in text) [Example 6]	0.005	0.0005	0.017
Y[Aib]QGTFTSDYSI[αMeL]LDKKAQ[Aib]KFIEYLLEGGPSSGAPPPS-NH2 (bridge 17-21; also: further groups not given here) [Example 7]	0.005	0.0003	0.061
Y[Aib]QGTFTSDYSI[αMeL]LDKKAQ[Aib]KFIEYLLEGGPSSGAPPPS-NH2 (bridge 17-21) [Example 8]	0.004	0.0004	0.012
Y[Aib]QGTFTSDYSI[αMeL]KDKKAQ[Aib]AFIEYLLEGGPSSGAPPPS-NH2 (linker 14-17 via (2-2-oxoethyl)‑glycine, AEEA, γGlu, C20 diacid) [Example 21]	0.02	0.0008	0.039
Y[Aib]QGTFTSDYSI[αMeL]LDKKAQ[Aib]EFIEYLLEGGPSSGAPPPS-NH2 (linker 17-21 via stapled body chem0208; reading uncertain; also: further groups not given here) [Example 10]	0.009	0.0003	0.057
Y[Aib]QGTFTSDYSI[αMeL]LDKKAQ[Aib]AFIKYLLEGGPSSGAPPPS-NH2 (linker 17-24 via Ida, Lys, Lys, γGlu, C20 diacid) [Example 18]	0.008	0.0004	0.052
Y[Aib]QGTFTSDYSI[αMeL]LDKKAQ[Aib]AFIEKLLEGGPSSGAPPPS-NH2 (linker 25-28 via Lys, AEEA, γGlu, C20 diacid) [Example 3]	0.025	0.003	1.68
Y[Aib]QGTFTSDYSI[αMeL]LDKKAQ[Aib]KFIEYLLKGGPSSGAPPPS-NH2 (linker 21-28 via stapled body chem0212; reading uncertain; also: further groups not given here) [Example 14]	0.001	0.0001	0.028
Y[Aib]QGTFTSDYSI[αMeL]LDKKAQ[Aib]KFIEFLLEGGPSSGAPPPS-NH2 (linker 17-21 via Ida, Lys, Lys, γGlu, C20 diacid) [Example 22]	0.009	0.0004	0.034
Y[Aib]QGTFTSDYSI[αMeL]LDKKAQ[Aib]KFIEFLLEGGPSSGAPPPS-NH2 (bridge 17-21; also: stapled body between K17 and K21 is given only as a drawing, not in text) [Example 9]	0.005	0.0004	0.022
Y[Aib]QGTFTSDYSI[αMeL]KDKKAQ[Aib]AFIEYLLEGGPSSGAPPPS-NH2 (linker 14-17 via (2-2-oxoethyl)‑glycine, AEEA, γGlu, 19‑phosphonononadecanoic acid) [Example 43]	–	–	0.042
H[Aib]HGTFTSDYSIYLEKKYA[Aib]EFVKWLLKGGPSSGAPPPS-NH2 (bridge 24-28; not fully specified (bridges); also: stapled body (lipidated) structure only in drawing chem0197) [Example 4]	0.023	0.016	0.143
Y[Aib]QGTFTSDYSI[αMeL]LDKKAQ[Aib][Orn]FIEYLLEGGPSSGAPPPS-NH2 (linker 17-21 via stapled body chem0215; reading uncertain; also: further groups not given here) [Example 17]	0.001	0.0001	0.016
Y[Aib]QGTFTSDYSI[αMeL]LDKKAQ[Aib][dK]FIEYLLEGGPSSGAPPPS-NH2 (linker 17-21 via stapled body chem0214; reading uncertain; also: further groups not given here) [Example 16]	0.002	0.0001	0.042
Y[Aib]QGTFTSDYSI[αMeL]LDKKAQ[Aib]AFIKWLLKGGPSSGAPPPS-NH2 (linker 24-28 via stapled body chem0195; reading uncertain; also: further groups not given here) [Example 2]	0.009	0.001	0.279
Y[Aib]QGTFTSDYSI[αMeL]LDKKAQ[Aib]KFIEYLLEGGPSSGAPPPS-NH2 (linker 17-21 via Glu, AEEA, AEEA, γGlu, C20 diacid) [Example 12]	0.002	0.0001	0.007
H[Aib]HGTFTSDYSIYLEKKYA[Aib]KFVQWLLEGGPSSGAPPPS-NH2 (bridge 17-21; not fully specified (bridges); also: stapled body (lipidated) structure only in drawing chem0198) [Example 5]	0.029	0.007	0.012
